Earlier results, collected in PMC9163320.

Molecular target: Asp303 (UniProt position 303, VILFMDRNLEQ)
Test: NMR
Settings: folded Hint domain; no ligand stated

| Substance | pKa |
| --- | --- |
| Hedgehog protein, Hint domain of the C-terminal autoprocessing domain (HhC) (Drosophila melanogaster) | 5.6 |
| Hedgehog protein, Hint domain of HhC, C258A mutant (Drosophila melanogaster; C258A) | 4.2 |
